Assay results taken from paper PMC7017188.
pIC50: −log10 of the molar value.

Target: His-tagged eukaryotic initiation factor 6 (eIF6), full length recombinant (UniProt P56537)
Experiment: AlphaScreen or HTRF; competition: serial dilution of non-biotinylated 60S against the optimised assay (eIF6 75 nM, 60S-Bio 0.5 nM); PBS pH 7.4, 5 mM MgCl2, 0.2% BSA, 0.02% Tween-20; room temperature; normalised between 100% displacement (no eIF6) and 0% displacement

Substance: non-biotinylated 60S ribosomal subunit (complex)
- pIC50: 9.55
